Experimental data: article PMC4305340
Like-named read-outs stand apart in the source and are kept apart here.

Experiments:
Assay in all cases: fluorescence polarization
[1] = biological target: PrfA(C/A)4 (Listeria monocytogenes, UniProt P22262 1-237, C38A;C144A;C205A;C229A)
[2] = biological target: T1, PrfA wild type (Listeria monocytogenes, UniProt P22262 1-237)
[3] = biological target: T1, PrfA wild type; remark: listed apart in the source

Binder	Kd [1]	Kd [2]	Kd [3]
PactA PrfA box (dsDNA) DNA 1: AACTGATTAACAAATGTTAGAGAAAACT DNA 2: AGTTTTCTCTAACATTTGTTAATCAGTT	125 nM	96.4 nM	–
Phly PrfA box (dsDNA) DNA 1: TGAGGCATTAACATTTGTTAACGACGAT DNA 2: ATCGTCGTTAACAAATGTTAATGCCTCA	32.8 nM	–	34.2 nM
